Results published in patent US10577428B2, “Anti-factor XI monoclonal antibodies and methods of use thereof” (Oregon Health & Science University, priority 2007, dated 2020).
Like-named read-outs stand apart in the source and are kept apart here.

Key:
Human FXI in plasma = target: T1, Human FXI in plasma (Homo sapiens, UniProt P03951); assay: Western blot of human plasma; type: binding
T1 construct: antibody 1A6 recognizes Factor XI in human and non-human primate plasma; from tissue; host or cells: normal human plasma (A4); whole human blood or reconstituted FXII-deficient human blood (A9)
Description: Results from a Western Blot study corroborating that anti-factor XI monoclonal antibody 1A6 recognizes Factor XI in human and non-human primate plasma is shown in FIG. 7A.

[1] = tested on: recombinant FXI proteins with mutations within the A3 domain; assay: Western blot binding to recombinant FXI A3 domain alanine mutants; design: species or system human; settings: 2 or 3 adjacent amino acids replaced with Alanine (FIG. 11)
Experimental: Binding studies were also conducted using recombinant FXI proteins involving mutations of different amino acids within the A3 domain to determine amino acids important for the binding of monoclonal antibody 1A6. An example of the binding of monoclonal antibody 1A6 to a panel of 25 such recombinant proteins in which 2 or 3 adjacent amino acids within the A3 domain were replaced with Alanine is shown in FIG. 11. […] Based on such studies, amino acids important for the binding of monoclonal antibody 1A6 to the FXI A3 domain were determined, and are shown in FIG. 12 (amino acids 183 to 197, 203 to 204, 234 to 236, 241 to 243, 252 to 254, and 258 to 260 of SEQ ID NO:1).

B1: aXIMab: neutralizing murine IgG/kappa anti-human FXI monoclonal antibody from hybridoma 1A6; binds A3 domain; VH SEQ ID NO:3, VL SEQ ID NO:5 (antibody, listed as Mus musculus, V domains shown)
VH: QVTLKESGPGILKPSQTLSLTCSFSGFSLSTSGMGVGWIRQPSGKGLEWLAHIWWDDDKYYNPSLKSQLTISKDTSRNQVFLKITSVDAADTATYYCARKRSSVVAHYYAMDYWGQGTSVTVSS
VL: DIVLTQSPASLAVSLGQRATISCKASQSVDYDGDSYLNWYQQKPGQPPKLLIYAASNLESGIPARFSGSGSGTDFTLNIHPVEEEDAATYYCQQSNGDPWTFGGGTKLEIK
Human FXI in plasma
  recognition of FXI on Western blot: single band at 160 kDa
Human FXI in plasma; listed as 1A6
  recognition of FXI on Western blot: recognizes
[1]
  binding to FXI A3 domain mutants: did not bind to some mutants
